Measured values from patent publication US12545899B2, “Luciferase enzymes for use with thermostable luciferins in bioluminescent assays” (Promega Corporation, priority 2018, dated 2026).
Where a chain is given by its changes, count along the chain named. In names and notes the source's numbering stands.

B1: MK0148: SEQ ID NO: 114; H244W+S193A+N228D+L305F+S306P+I109V+C38R+F55I+Y108F+A316W+Y339M+T342S+V348I+C257R+T289S+S313T+D435G+L437R+W510R (protein)
chain: MADKNILYGPEPFYPLEDGTAGEQMFDALSRYAAIPGRIALTNAHTKENVLYEEILKLSCRLAESFKKYGLKQNDTIAVCSENSLQFFLPVIASLYLGIIVAPVNDKFVERELIHSLGIVKPRIVFCSKNTFQKVLNVKSKLKSIETIIILDLNEDLGGYQCLNNFISQNSDSNLDVKKFKPYSFNRDDQVAAIMFSSGTTGLPKGVMLTHKNIVARFSIAKDPTFGDAINPTSAILTVIPFHWGFGMMTTLGYFTCGFRVVLMHTFEEKLFLQSLQDYKVESTLLVPTLMAFLAKSALVEKYDFPHLKEIATGGWPLSKEIGEMVKKRFKLNFVRQGMGLSETTSAILITPKGDAKPGSTGKIVPLHAVKVVDPTTGKILGPNEPGELYFKGPMIMKGYYNNEEATKAIIDNDGWLRSGDIAYYDNDGHFYIVGRRKSLIKYKGYQVAPAEIEGILLQHPYIVDAGVTGIPDEAAGELPAAGVVVQTGKYLNEQIVQDYVASQVSTAKWLRGGVKFLDEIPKGSTGKIDRKVLRQMLEKHTNGHHHHHHHH
B2: MK0154: SEQ ID NO: 119; H244W+S193A+N228D+L305F+S306P+I109V+C38R+F55I+Y108F+A316W+Y339M+T342S+V348I+C257R+T284A+T289S+S313T+K353R+D435G+L437R+W510R (protein)
chain: B1 chain with T284A, T289S, G435D, R437L, W510R
B3: MK0153: SEQ ID NO: 118; H244W+S193A+N228D+L305F+S306P+I109V+C38R+F55I+Y108F+A316W+Y339M+T342S+V348I+T289S+K353R+D435G+W510R (protein)
chain: B1 chain with C257R, T289S, K353R, G435D, R437L
B4: MK0151: SEQ ID NO: 116; H244W+S193A+N228D+L305F+S306P+I109V+C38R+F55I+Y108F+A316W+Y339M+T342S+V348I+S313T+D435G+L437R (protein)
chain: B1 chain with C257R, T313S, K353R, G435D, W510R
B5: MK0155: SEQ ID NO: 120; H244W+S193A+N228D+L305F+S306P+I109V+C38R+F55I+Y108F+A316W+Y339M+T342S+V348I+T284A+S313T+K353R+L437R+W510R (protein)
chain: B1 chain with T284A, K353R, G435D, W510R
B6: MK0152: SEQ ID NO: 117; H244W+S193A+N228D+L305F+S306P+I109V+C38R+F55I+Y108F+A316W+Y339M+T342S+V348I+C257R+K353R+L437R+W510R (protein)
chain: B1 chain with T289S, T313S, K353R, R437L, W510R
B7: MK0149: SEQ ID NO: 115; H244W+S193A+N228D+L305F+S306P+I109V+C38R+F55I+Y108F+A316W+Y339M+T342S+V348I+C257R+T284A+T289S+L437R (protein)
chain: B1 chain with C257R, T284A, T289S, T313S, G435D

Tests used:
Assay type in all cases: biochemical
[1] = Kinetic analysis of thermostable variants with CS0333 (Tables 13, 14); settings: 2 mM ATP
Excerpt: (§1) Tables 13 and 14 include representative results of kinetic analysis of the thermostable variants with D/L luciferin, CS0333, and CS0280. The panel of enzyme variants highlight amino acid substitutions that further improve upon MK0137 in maximum luminescence (Vmax) or Km in different buffers with the different substrates tested (D/L-luciferin, CS0333, and CS0280). In particular, enzyme variants MK0151 and MK153 show improvements relative to MK0137 across multiple buffers with multiple substrates.

[2] = Kinetic analysis of thermostable variants with CS0280 (Tables 13, 14); settings: 2 mM ATP
Excerpt: as §1

[3] = Luminescence at 1 mM CS0280 (Table 11); settings: 1 mM substrate, 1 mM ATP
Excerpt: (§2) Tables 10 and 11 include representative results of kinetic analysis of the thermostable variants with D/L luciferin, CS0333, and CS0280. […] MK0135 and MK0137 have amino acid substitutions that improve thermostability relative to MK0133 and MK0134, respectively, while retaining activity on the luciferin analogs CS0333 and CS0280.

[4] = Kinetic analysis of thermostable variants with D/L-luciferin (Tables 13, 14); settings: 2 mM ATP
Excerpt: as §1

[5] = Luminescence at 1 mM CS0333 (Table 11); settings: 1 mM substrate, 1 mM ATP
Excerpt: as §2

[6] = Luminescence at 1 mM D/L-luciferin (Table 11); settings: 1 mM substrate, 1 mM ATP
Excerpt: as §2

Molecule | Km ([1]; BrightGlo Buffer) [µM] | Vmax (RLU) ([1]; BrightGlo Buffer) | Km ([1]; Detection Reagent Buffer) [µM] | Vmax (RLU) ([1]; Detection Reagent Buffer) | Km ([2]; BrightGlo Buffer) [µM] | Vmax (RLU) ([2]; BrightGlo Buffer) | Km ([2]; Detection Reagent Buffer) [µM] | Vmax (RLU) ([2]; Detection Reagent Buffer) | Vmax (RLU) CS0280 BrightGlo Buffer [3] | Vmax (RLU) CS0280 Detection Reagent Buffer [3] | Km ([4]; BrightGlo Buffer) [µM] | Vmax (RLU) ([4]; BrightGlo Buffer) | Km ([4]; Detection Reagent Buffer) [µM] | Vmax (RLU) ([4]; Detection Reagent Buffer) | Vmax (RLU) CS0333 BrightGlo Buffer [5] | Vmax (RLU) CS0333 Detection Reagent Buffer [5] | Vmax (RLU) D/L-luciferin BrightGlo Buffer [6] | Vmax (RLU) D/L-luciferin Detection Reagent Buffer [6]
B1 | 8.44 | 2,895,248 RLU | 48.4 | 543,865 RLU | 8.94 | 359,383 RLU | 619 | 26,247 RLU | 620,182 RLU | 21,505 RLU | 0.0737 | 1,993,509 RLU | 0.21 | 332,703 RLU | 3,525,730 RLU | 2,139,740 RLU | 1,227,230 RLU | 515,688 RLU
B2 | 10.6 | 1,706,369 RLU | 230 | 409,320 RLU | 41.7 | 449,576 RLU | 954 | 24,533 RLU | 809,566 RLU | 22,493 RLU | 0.108 | 2,997,269 RLU | 0.356 | 342,134 RLU | 2,374,950 RLU | 854,223 RLU | 2,583,340 RLU | –
B3 | 6.66 | 4,114,986 RLU | 22 | 822,270 RLU | 7.71 | 1,098,792 RLU | 474 | 88,269 RLU | 1,803,730 RLU | 90,671 RLU | 0.176 | 1,081,804 RLU | 0.435 | 75,581 RLU | 3,768,010 RLU | 2,570,070 RLU | 509,406 RLU | 78,859 RLU
B4 | 6.45 | 4,586,290 RLU | 37.6 | 727,712 RLU | 4.88 | 534,004 RLU | 632 | 58,187 RLU | 1,490,130 RLU | 76,615 RLU | 0.0834 | 924,955 RLU | 0.265 | 123,752 RLU | 8,608,150 RLU | 4,805,980 RLU | 1,074,780 RLU | 249,347 RLU
B5 | 7.88 | 1,487,388 RLU | 126 | 301,956 RLU | 8.07 | 570,972 RLU | 798 | 32,480 RLU | 4,644,970 RLU | 62,606 RLU | 0.0804 | 550,291 RLU | 0.527 | 22,671 RLU | 3,609,390 RLU | 1,400,780 RLU | 851,342 RLU | 74,704 RLU
B6 | 4.09 | 519,457 RLU | 56.8 | 49,798 RLU | 5.74 | 330,383 RLU | 848 | 10,047 RLU | 484,293 RLU | 11,418 RLU | 0.0583 | 1,055,203 RLU | 0.395 | 60,231 RLU | 405,859 RLU | 175,261 RLU | 954,983 RLU | 103,199 RLU
B7 | 4.89 | 1,336,251 RLU | 48.4 | 353,432 RLU | 5.6 | 652,464 RLU | 678 | 44,058 RLU | 1,368,890 RLU | 57,404 RLU | 0.0482 | 351,895 RLU | 0.26 | 33,641 RLU | 1,433,640 RLU | 1,270,240 RLU | 416,355 RLU | 52,341 RLU
